Data: a protein production outcome set (Wang et al. 2014)

Experiment: label from the status in PepcDB records

Sequence | protein production
MVMLNTHVVECLQACGRCAAACDYCASSCLREGHGADMARCIALDLDCAAACRLCAAMMARESEFSTHMCTLCARICEVCGDECARHEPRHCQECATACHACASACRAMARPLEHHHHHH | not failed
MVNDVEVTVTYTASDEDATVTYVDDDKGGAQVGDIVTVTGKTDDSTTYTVTIPDGYEYVGTDGGVVSSDGKTVTITFTADDSDNVVIHLKHGLEHHHHHH | not failed
MVNEVQGIGIPTSHTSVQTTPTKEISRTNTINTVDESKTTIDPDQYKPKLELLSERLNEEMKRIGTDINFSYNDTIKGLVVSVKDANGDKVIREIPSKEAVELMQRMRDVIGIIFDKRG | failed
MVNGSPHEKGCTYTALTEVAKTLNEEGIDTEIFWIGKKPLTGCTACKSCTKTGRCAFNDRANDFLDIAKGADGFIFGSPVHYASATGAITSFMDCVFYSDLLGGRQSFYLKPAATVISARRAGTTTTFDQLNKYFTLSEMPVISSRYWNMVHGAKPEDVKKDLEGLQIMRVLARNMAWFLKCKEAGMKAGVPLPVKEERMSTNFIRE | failed
MVNHGYPLGRSLLSIAMAMLGALSLVFPLPLLTQDMVDSERSLPLLGDHPLEERLIDGMDEGIKKNYRGAIAIFTELILLDPSYADAYFNRGIARARIADYQGAITDHSQAITLNPQLAEAYKARGKIYWQLGEQAQAIADLEAALALFSDQENLVSQREAWEQLQTWHGNP | failed
MVNTNLEELRTQVDQLNIDLLELISKRANLVQEIGKIKGTQGSLRFDPLREREMLNTILAANEGPFEDSTVQKLFKEIFKAGLELQEEDHSKALLVSRKNKKEDTIVTVKGLPIGNGEPVFVFGPCSVESYEQVAAVAESIKAKGLKLIRGGAFKPRTSPYDFQGLGLEGLKILKRVSDEYGLGVISEIVTPADIEVALDYVDVIQIGARNMQNFELLKAAGRVDKPILLKRGLSATIEEFIGAAEYIMSQGNGKIILCERGIRTYEKATRNTLDISAVPILKKETHLPVMVDVTHSTGRKDLLLPCAKAALAIEADGVMAEVHPDPAVALSDSAQQMDIPEFEEFWNAILASNLVPHKIK | not failed
MVNVDGKREEDEEVIEVEGMGANKSARMLERLHVVHQYVARWVYSHGIPFNAIANDDLRRMLEVAGQFGPGVTPPSQYQLREPLLKEEVVRMKGLMEEQEDEWRVNGCSVTTDSWSDRKRRSIMNLCINCKEGTMFLSSKDCFDDSHTGEYIFAYVNEYCIKNLGGDHVVQVVTNNATNNITAAKLLKEVRPTIFWTFCATHTINLMVEGISKLAMSDEIVKMAKAFTIFIYAHHQTLSMMRSFTKRRDIVRPGIIGFASAFRTLKSLVEKEENLKVKRKKKKKLSKATTMVVL | failed
MVPAPEAIRQALQERLLARLDHPDPLYRDLLQDYPRRGGKMLRGLLTVYSALAHGAPLEAGLEAATALELFQNWVLVHDDIEDGSEERRGRPALHRLHPMPLALNAGDAMHAEMWGLLAEGLARGLFPPEVLLEFHEVVRRTAYGQHLDLLWTLGGTFDLRPEDYFRMVAHKAAYYTAVAPLRLGALLAGKTPPAAYEEGGLRLGTAFQIVDDVLNLEGGEAYGKERAGDLYEGKRTLILLRFLEEAPPEERARALALLALPREAKPEAEVGWLLERLLASRALAWAKAEAKRLQAEGLALLEAAFQDLPGKEALDHLRGLLAALVERRA | not failed
MVPCWNHGNITRSKAEELLSRTGKDGSFLVRASESISRAYALCVLYRNCVYTYRILPNEDDKFTVQASEGVSMRFFTKLDQLIEFYKKENMGLVTHLQYPVPLEEEDTGDDPEEDTVESVVSPPELPPRNIPLTASSCEAKEVPFSNENPRATETSRPSLSETLFQRLQSMDTSGLPEEHLKAIQDYLSTQLAQDSEFVKTGSSSLPHLKKLTTLLCKELYGEVIRTLPSLESLQRLFDQQLSPGLRPRPQVKG | not failed
MVPDYFSASEWTIIADVLGANSRHLFELYALKQSNHYQSLMGSKAGTFEDIVDAYLAYLQVAVVNPAMDKALLRLQRYATDVRKGSIPYEKLRFGASWRHPPQTEDPTQNSEWAKIQLMDFVQALVNTEFAVGILYTQRDPSFFRPISQGIKRCLVRWNVDEISVSCARTHVGLRFYREVENIKGRCFCCRQGLTFSKITLRRDVGGKNLQLQNGVIVTTDRSSLQRLKQKPDLIYGIWERPHGFNLRSVQENNEHNN | failed
MVPIPNGVSAKETHKLMGRGIAAFALLLLLQVSGSIVTQSGLAAPWWNAMFLWLLLTGIGCFSVASIRGRGLRWTSSILSLLVLAGLLLWPAAVPTTVPVDIGTPWLWAMINVGAAWSAFAFGTLPGCVYTVVIGSVFAVVRTLPQSGSASPSTAIQDASFSTVLGIIICLTIGILRQASERVDTAAENAINRYREAAAETALSNERTRVDGLLHDSVMSALLTASRSGSSLERLSSAELARSALARLGEHEIKQTDATTVSVSELASRIRFTVQDDGDTPTVTVTGEGSTSLLLSGQVVRALFEASTEAVANAVRHSNATRCEVRVLGQDPKGIARVVVSVKDNGDGFRQELVSDRRLGIKVSIIGRMRTIGGTADISSHPGKGTEVILTWAGEA | failed
MVQDQIRYDILVQDALRGVIRKVLSEVAKAGLPGSHHFFITFLTNAPGVKISTRLKSRYPEQMTIVLQHQFRDLNVSETAFEVTLSFREVSEKLVIPFHSIQVFYDPVAAFEAAFDLPSNLNSKEGENLENIASTPVILSDTQKKEKKFPKEQISKTNKDSSNNDTKQSADVVSLDSFRKKLEHHHHHH | not failed
MVQEEKAMEAINDALRALRKRHLLEEGAHAPAISALSKPLISQGSEWKEKTEKLETELQQCYKAQSRLSEQLVIEVAESRTSKAILQEKELLINDLQKELTQRREDCTRLQEELEEKTKTVDVLIAENLEIRSQLEEMTSRVQKAETENKMLIDRWMLQKMQDAERLNEANDLYEEMLAKLKANGLETLARQQVDGIVRRNEDGTDHFVESTIPSTCANRIHAHEGGCGSIVFEYNSGTLFTGGQDRAVKMWDTNSGTLIKSLYGSLGNILDMAVTHDNKSVIAATSSNNLFVWDVSSGRVRHTLTGHTDKVCAVDVSKFSSRHVVSAAYDRTIKLWDLHKGYCTNTVLFTSNCNAICLSIDGLTVFSGHMDGNLRLWDIQTGKLLSEVAGHSSAVTSVSLSRNGNRILTSGRDNVHNVFDTRTLEICGTLRASGNRLASNWSRSCISPDDDYVAAGSADGSVHVWSLSKGNIVSILKEQTSPILCCSWSGIGKPLASADKNGYVCTWT | failed
MVQLDQRVRFKSATSIISIEMWERFSFYGMQALLVYYLYFDVAAGGLGLDQTQATGLVGVYGALLYLCCWAGGWVSDRVLGAEKTLLGGAISVTIGHLVLAGLGGKIGLAIGLGCIAIGSGFVKTAAITVLGSRHGEQEGDAKADPAFQLFYLGINVGALLGPLLTGWLSSRYSFEMGFGAAAVLMIGGLGIYAALRKPMLQSFPLEVKKALLRAQNPAEKHVISTAFAAVAVLCGVLLYLLLTETVSADQLAGALLLVTIGAALWLIIQPLRHPQVSSEEKRKVLAFIPIFVCSTAFWAVQAQTYGVLAVYSQERVDRMVGDFEIPAAWSQSLNPFFILALSIPISLWFMRGSRAPRVKIGISIGVIIAGSGLLVLIPFVGMPLAPVWVLPLSVFLISLGELFIGPGGMAATAHHAPRIFATRFSALYFLTLAIGMSIAGNVSKFYDPTNHTSELRYFAVFGISIIVIGVGSLMVAKKVG | failed
MVQSSVRRKGARPRDRQTGEPGWDDSLYDDNGEPVQDGRGSGRGGGSAQGGGDGDGPPDEAKGHSRHGGGRRRGGKGDGGGGRPRRRRRVLRWSATVLAVLILGTAGAGYLYYQHLNDNIKKDDLYLGDDKDRAAKPKANAAGQTPLNILLIGSDARDSAANQKLGGAKDTYGGTPRADVQMLLHLSADRSNMSVVSMPRDTLLEIPKCTDPKTSHTYAAITYPTMTNNSLGRGGPGCTVATWEKFTDIHIDHFMMVDFAGVVSMADAIGGVPVCVDANIYSHTSTGHGSGLKLKDGTTSIKGKQALQWLRTRYGFEDGSDIGRTKAQHQYMNSMVRQLRENATLSNPNKLRKLAETATNALTVDDGLGTVSKLYDLSKELKKVPTSRITMTTMPWVYSSDGNRVLPKPNDAAKVFRLLREDIALDGKDKKKSPAQKAVAPAHADDKIAVQVQNGTRTSALAPVGGRANAMAQLLVGKGFTGAAADSSTVLSEDKTVIRYPSADLKGDAQRVAKSLGVPLSSVEKSASVSGVTLIVGGDWRSGTTYKAAEDDDTTPASAKLDKGSDTGACMHVDPDYTWS | failed
MVQTRSQDDSKDKGKEVEGANPLEERMLRLESMMDAHSKEMMKHMAEMTMVMSRSTAHKLREEHSSGERSLPRSSTSTDDRVGYQDHRRDQGQDQDHRRDQQQNQDHRRDNRLDQVRYEPQQQHYGNLTRLGKIDLPRFDGTGIKEWLFKVEEFFGIDFTPADLKVKMVAIHFDSHAATWHHSFMQSGVGLEVLYDWPGYVRLLK | failed
MVRDNGPGERLSIPPLSGLRKFRRTLSQKYDNHYCYLWMVSSALEYVRKFGIEKEPSRPFHAYAICPKDVPHRSPSIELSYISEVVWLNRIEDDLCYMNIRSLPVSPFSFSNIEKIGFQR | not failed
MVRLAEERDFPGFLGLAGQVEHWFGPMVEDAGFHEAVREHIRRGAALVAVAPDPDTDAGPGAGTGTELLGGLLFGTDTDADAPVHHVHWLVVSRQARAGGVGRALMRDAMRRWVREPAGVEVVTFGADHPGATESGARAFYERLGFTPAEVVAPGPEGGSRQLFRRGAQVRPTRGEHVTTYTGGPA | failed
MVRLTPFYKKLSILFVEDEREVQEAALNVLERYIDHILVASDGEEALAIFKEKRPDIVITDIKMPVMDGLALTKEIKELGDTPVIVISAFDNEEFVSEAARLGVETYLLKPIDIQLLLASINRCIELLIRREEARQNRSLLREYKRIVDETAMICKIDLDKTITYANEAFCQISGYSKEELTGKIYRHMVSPRQDLSRLDGGLWVNVLRGKSWKGMIELLNKKGEPYFIQASMFPLFDADGKITELIALQFDITEHIKTKQILEKQNQKLEHIAHTDTLTGVWNRYKFNKILRQEIKCAKSSNHPFSLMLLDVDRFKTINDTHGHQFGDRVLKAITSTLKRQLKHKEAMIARWGGEEFIVLAQGYRLAQALELAERLRAAIEGMEFENIPITSSFGVTEFSPEDELDTLVRRADLALYTAKESGRNRIISY | failed
MVRRLACKRAYRFRFYPTPEQEQLLRRTVGCCRKVYNLALEARSTAWTAERRSITYVQTSAMLTQWKQTAEYSYMNEVSCVPLQQALRHLQTAFSNFFKQTGDYPRFKAKSHGGSAEYTRSAFTWDAKRNELTLAKMRGPLPIRWSRTLPRKTEPSTVTVSLDAAGRWHVSILVEEAIRPLPARGDAVGIDLGVDSYAVTSDGETIANPRHYRKLAERLEREQRALSRKTKGGNNRRKAALKVARTYARITDMRRDFLHKLSTRIIRENQTVVLEDLNVRNMARRCAPKPDPDNPNHWLPNGQSAKNGLNGSIMDAGWSEFRRMLEYKAEWYGRKLITIDRYYPSTQICSHCGAKTGPKGMPGLTVRAWTCPDCGTTHDRDLNAAENILAAGLAVSVCKDGRTGTKVSH | failed
MVRVFNHWFSPRKAFYFFAEETVLVVALLAGASLGPVAAQATGAAAPIAPAVLRAGLASLFFAGALYLGDLYDLHAAVRDRADGRRLLRALGVATIALAIADLSLDLVLPGWMLHRSVVLAAAGGALGVIGARALMPAVVGAPTRVLFLGAGPRARDLARAVEREADGLWAVAGFVVPEGSRAPAVVPPEALRQGPVLDVVRQARAQVVVVAMEDRREGLPVDALLALRTRGLRVVDDVGFAEATLQRIPLALVRPSALIFDEGFRVSRLTRTVKRALDLGVSAVGLLLGAPVMAAVAAAIWLSDGRPLLYSQERTGRGGRPYRIWKFRTMRRDAEKLGAAWATDDDPRVLPVGRFLRRARLDELPQLWNVLGGHMSLVGPRPERAVFLSELKARWPLFALRELVKPGLTGWAQLRYGYGSTMEEQAKKLEYDLYYIKNTTLFLDLVCLLATAKVVLLGRGAR | failed
